# Test results as given in patent publication US20230357429A1 (JANUX THERAPEUTICS, published 2023).
# Biological target: T1, TBD-21 (HC F108A)
# T1 construct: anti-TROP2 Fab, CDR3 HC alanine mutant
# Experiment: competition ELISA, Fab on captured TROP2
row,Binder,IC50 [µM]
1,VDFCYMYKWPVCYP (mask peptide for the TROP2 Fab) [Peptide-48],75.2
2,IDFCRVYDWPVCSL (mask peptide for the TROP2 Fab) [Peptide-53],22.7
3,VDFCNLYHWPICAI (mask peptide for the TROP2 Fab) [Peptide-60],5.45
4,VDFCYKYNWPICSR (mask peptide for the TROP2 Fab) [Peptide-55],16.8
5,VDFCGLYHWPICYQV (mask peptide for the TROP2 Fab) [Peptide-51],1.27
6,VDFCALYNWPVCAI (mask peptide for the TROP2 Fab) [Peptide-59],9.64
7,IDFCYRYGWPVCQT (mask peptide for the TROP2 Fab) [Peptide-57],88.1
8,VDFCYQYGWPICSRV (mask peptide for the TROP2 Fab) [Peptide-56],106
9,VDFCYRYSWPVCWA (mask peptide for the TROP2 Fab) [Peptide-54],161
10,IDFCLLYKWPVCEL (mask peptide for the TROP2 Fab) [Peptide-49],8.67

# Biological target: T2, TBD-1 wt (anti-TROP2 Fab, hRS7)
# T2 construct: non-mutated Fab
# Experiment: competition ELISA, Fab on captured TROP2
row,Binder,IC50 [µM]
1,VDFCYMYKWPVCYP (mask peptide for the TROP2 Fab) [Peptide-48],10
2,IDFCRVYDWPVCSL (mask peptide for the TROP2 Fab) [Peptide-53],8.93
3,VDFCNLYHWPICAI (mask peptide for the TROP2 Fab) [Peptide-60],0.47
4,VDFCYKYNWPICSR (mask peptide for the TROP2 Fab) [Peptide-55],4.39
5,VDFCGLYHWPICYQV (mask peptide for the TROP2 Fab) [Peptide-51],0.18
6,VDFCALYNWPVCAI (mask peptide for the TROP2 Fab) [Peptide-59],3.49
7,IDFCYRYGWPVCQT (mask peptide for the TROP2 Fab) [Peptide-57],16.7
8,VDFCYQYGWPICSRV (mask peptide for the TROP2 Fab) [Peptide-56],10.1
9,VDFCYRYSWPVCWA (mask peptide for the TROP2 Fab) [Peptide-54],27.1
10,IDFCLLYKWPVCEL (mask peptide for the TROP2 Fab) [Peptide-49],3.73

# Biological target: T3, TBD-22 (HC D109A)
# T3 construct: anti-TROP2 Fab, CDR3 HC alanine mutant
# Experiment: competition ELISA, Fab on captured TROP2
row,Binder,IC50 [µM]
1,VDFCYMYKWPVCYP (mask peptide for the TROP2 Fab) [Peptide-48],0.31
2,IDFCRVYDWPVCSL (mask peptide for the TROP2 Fab) [Peptide-53],0.59
3,VDFCNLYHWPICAI (mask peptide for the TROP2 Fab) [Peptide-60],0.16
4,VDFCYKYNWPICSR (mask peptide for the TROP2 Fab) [Peptide-55],0.33
5,VDFCGLYHWPICYQV (mask peptide for the TROP2 Fab) [Peptide-51],0.01
6,VDFCALYNWPVCAI (mask peptide for the TROP2 Fab) [Peptide-59],0.1
7,IDFCYRYGWPVCQT (mask peptide for the TROP2 Fab) [Peptide-57],1.91
8,VDFCYQYGWPICSRV (mask peptide for the TROP2 Fab) [Peptide-56],3.03
9,VDFCYRYSWPVCWA (mask peptide for the TROP2 Fab) [Peptide-54],3.62
10,IDFCLLYKWPVCEL (mask peptide for the TROP2 Fab) [Peptide-49],0.07

# Biological target: T4, TBD-6 (LC I93A)
# T4 construct: anti-TROP2 Fab, CDR3 LC alanine mutant
# Experiment: competition ELISA, Fab on captured TROP2
row,Binder,IC50 [µM]
1,VDFCYMYKWPVCYP (mask peptide for the TROP2 Fab) [Peptide-48],6.26
2,IDFCRVYDWPVCSL (mask peptide for the TROP2 Fab) [Peptide-53],4.51
3,VDFCNLYHWPICAI (mask peptide for the TROP2 Fab) [Peptide-60],0.67
4,VDFCYKYNWPICSR (mask peptide for the TROP2 Fab) [Peptide-55],3.12
5,VDFCGLYHWPICYQV (mask peptide for the TROP2 Fab) [Peptide-51],0.42
6,VDFCALYNWPVCAI (mask peptide for the TROP2 Fab) [Peptide-59],1.94
7,IDFCYRYGWPVCQT (mask peptide for the TROP2 Fab) [Peptide-57],12.7
8,VDFCYQYGWPICSRV (mask peptide for the TROP2 Fab) [Peptide-56],5.62
9,VDFCYRYSWPVCWA (mask peptide for the TROP2 Fab) [Peptide-54],23.4
10,IDFCLLYKWPVCEL (mask peptide for the TROP2 Fab) [Peptide-49],2.25

# Biological target: T5, TBD-17 (HC S104A)
# T5 construct: anti-TROP2 Fab, CDR3 HC alanine mutant
# Experiment: competition ELISA, Fab on captured TROP2
row,Binder,IC50 [µM]
1,VDFCYMYKWPVCYP (mask peptide for the TROP2 Fab) [Peptide-48],8.86
2,IDFCRVYDWPVCSL (mask peptide for the TROP2 Fab) [Peptide-53],7.56
3,VDFCNLYHWPICAI (mask peptide for the TROP2 Fab) [Peptide-60],2.09
4,VDFCYKYNWPICSR (mask peptide for the TROP2 Fab) [Peptide-55],7.21
5,VDFCGLYHWPICYQV (mask peptide for the TROP2 Fab) [Peptide-51],0.55
6,VDFCALYNWPVCAI (mask peptide for the TROP2 Fab) [Peptide-59],3.49
7,IDFCYRYGWPVCQT (mask peptide for the TROP2 Fab) [Peptide-57],17.3
8,VDFCYQYGWPICSRV (mask peptide for the TROP2 Fab) [Peptide-56],24.1
9,VDFCYRYSWPVCWA (mask peptide for the TROP2 Fab) [Peptide-54],29.9
10,IDFCLLYKWPVCEL (mask peptide for the TROP2 Fab) [Peptide-49],2.53

# Biological target: T6, TBD-11 (HC R98A)
# T6 construct: anti-TROP2 Fab, CDR3 HC alanine mutant
# Experiment: competition ELISA, Fab on captured TROP2
row,Binder,IC50 [µM]
1,VDFCYMYKWPVCYP (mask peptide for the TROP2 Fab) [Peptide-48],31.3
2,IDFCRVYDWPVCSL (mask peptide for the TROP2 Fab) [Peptide-53],16.1
3,VDFCNLYHWPICAI (mask peptide for the TROP2 Fab) [Peptide-60],2.56
4,VDFCYKYNWPICSR (mask peptide for the TROP2 Fab) [Peptide-55],14
5,VDFCGLYHWPICYQV (mask peptide for the TROP2 Fab) [Peptide-51],0.62
6,VDFCALYNWPVCAI (mask peptide for the TROP2 Fab) [Peptide-59],7.55
7,VDFCYQYGWPICSRV (mask peptide for the TROP2 Fab) [Peptide-56],21
8,IDFCLLYKWPVCEL (mask peptide for the TROP2 Fab) [Peptide-49],6.37
